# Assay: AEGEAN phase III: adverse events in the safety analysis set (CTCAE v5.0)
# Settings: for COVID-19: number of patients with event / COVID-19: patients with event: grouped term; for Any immune-mediated event: number of patients / Any immune-mediated event: patients: immune-mediated AE
# [1] = all-causality, safety analysis set N = 400
# [2] = any cause, Any Grade, safety analysis set N = 400
# [3] = any cause, Any Grade, safety analysis set N = 400, listed as durvalumab
# [4] = any cause, Max. Grade 3 or 4, safety analysis set N = 400
# [5] = immune-mediated AE (grouped term), Any Grade 3 or 4, safety analysis set N = 400
# [6] = immune-mediated AE (grouped term), Any Grade, safety analysis set N = 400
# [7] = Any Grade 3 or 4, safety analysis set N = 400
# Excerpt: Safety was monitored throughout the study and adverse events (AEs) were graded using the National Cancer Institute Common Toxicity Criteria for AEs version 5.0.
substance,measurement,setting,value
Durvalumab: antibody that selectively binds PD-L1 and blocks binding of PD-L1 to PD-1 and CD80; arm given with platinum-based chemotherapy before surgery,Adverse events leading to cancellation of surgery: number of patients,[1],7
same,Adverse events leading to cancellation of surgery: patients,[1],(1.8) %
same,Adverse events leading to discontinuation of durvalumab/placebo: number of patients,[1],48
same,Adverse events leading to discontinuation of durvalumab/placebo: patients,[1],(12.0) %
same,COVID-19: number of patients with event,[2],44
same,COVID-19: patients with event,[2],(11.0) %
same,Alopecia: number of patients with event,[2],68
same,Alopecia: patients with event,[2],(17.0) %
same,Anemia: number of patients with event,[2],136
same,Anemia: patients with event,[2],(34.0) %
same,Asthenia: number of patients with event,[2],50
same,Asthenia: patients with event,[2],(12.5) %
same,Constipation: number of patients with event,[2],99
same,Constipation: patients with event,[2],(24.8) %
same,Decreased appetite: number of patients with event,[2],73
same,Decreased appetite: patients with event,[2],(18.3) %
same,Diarrhea: number of patients with event,[2],52
same,Diarrhea: patients with event,[2],(13.0) %
same,Fatigue: number of patients with event,[2],52
same,Fatigue: patients with event,[2],(13.0) %
same,Insomnia: number of patients with event,[2],41
same,Insomnia: patients with event,[2],(10.3) %
same,Nausea: number of patients with event,[2],101
same,Nausea: patients with event,[2],(25.3) %
same,Neutropenia: number of patients with event,[2],68
same,Neutropenia: patients with event,[2],(17.0) %
same,Neutrophil count decreased: number of patients with event,[2],64
same,Neutrophil count decreased: patients with event,[2],(16.0) %
same,Procedural pain: number of patients with event,[2],44
same,Procedural pain: patients with event,[2],(11.0) %
same,Pruritis: number of patients with event,[2],47
same,Pruritis: patients with event,[2],(11.8) %
same,Rash: number of patients with event,[2],56
same,Rash: patients with event,[2],(14.0) %
same,Vomiting: number of patients with event,[2],45
same,Vomiting: patients with event,[2],(11.3) %
same,Pruritis: patients with event,[3],11.8%
same,Rash: patients with event,[3],14%
same,COVID-19: number of patients with event,[4],1
same,COVID-19: patients with event,[4],(0.3) %
same,Alopecia: number of patients with event,[4],0
same,Anemia: number of patients with event,[4],26
same,Anemia: patients with event,[4],(6.5) %
same,Asthenia: number of patients with event,[4],0
same,Constipation: number of patients with event,[4],1
same,Constipation: patients with event,[4],(0.3) %
same,Decreased appetite: number of patients with event,[4],1
same,Decreased appetite: patients with event,[4],(0.3) %
same,Diarrhea: number of patients with event,[4],3
same,Diarrhea: patients with event,[4],(0.8) %
same,Fatigue: number of patients with event,[4],0
same,Insomnia: number of patients with event,[4],0
same,Nausea: number of patients with event,[4],1
same,Nausea: patients with event,[4],(0.3) %
same,Neutropenia: number of patients with event,[4],36
same,Neutropenia: patients with event,[4],(9.0) %
same,Neutrophil count decreased: number of patients with event,[4],39
same,Neutrophil count decreased: patients with event,[4],(9.8) %
same,Procedural pain: number of patients with event,[4],1
same,Procedural pain: patients with event,[4],(0.3) %
same,Pruritis: number of patients with event,[4],1
same,Pruritis: patients with event,[4],(0.3) %
same,Rash: number of patients with event,[4],2
same,Rash: patients with event,[4],(0.5) %
same,Vomiting: number of patients with event,[4],3
same,Vomiting: patients with event,[4],(0.8) %
same,COVID-19 events of max. grade 5: number of patients,"any cause, assessed as unrelated to study treatment, safety analysis set, listed as D",5
same,Decreased appetite with an outcome of death (max. grade 5): number of patients,"any cause, safety analysis set, listed as D",1
same,Dermatitis/Rash: number of patients,[5],2
same,Dermatitis/Rash: patients,[5],(0.5) %
same,Diarrhea/Colitis: number of patients,[5],0
same,Hepatic events: number of patients,[5],8
same,Hepatic events: patients,[5],(2.0) %
same,Hyperthyroid events: number of patients,[5],0
same,Hypothyroid events: number of patients,[5],0
same,Pneumonitis: number of patients,[5],5
same,Pneumonitis: patients,[5],(1.2) %
same,Dermatitis/Rash: number of patients,[6],22
same,Dermatitis/Rash: patients,[6],(5.5) %
same,Diarrhea/Colitis: number of patients,[6],3
same,Diarrhea/Colitis: patients,[6],(0.7) %
same,Hepatic events: number of patients,[6],13
same,Hepatic events: patients,[6],(3.2) %
same,Hyperthyroid events: number of patients,[6],7
same,Hyperthyroid events: patients,[6],(1.7) %
same,Hypothyroid events: number of patients,[6],37
same,Hypothyroid events: patients,[6],(9.2) %
same,Pneumonitis: number of patients,[6],15
same,Pneumonitis: patients,[6],(3.7) %
same,Pneumonitis: patients,"immune-mediated AE (grouped term), Any Grade, safety analysis set N = 400, listed as durvalumab",3.7%
same,Any immune-mediated event: number of patients,[7],17
same,Any immune-mediated event: patients,[7],(4.2) %
same,Any immune-mediated event: patients,"Any Grade 3 or 4, safety analysis set N = 400, listed as durvalumab",4.2%
same,Any immune-mediated event: number of patients,"Any Grade, safety analysis set N = 400",95

# From US20260284189A1, “TREATMENT OF NON-SMALL CELL LUNG CANCER” (ASTRAZENECA AB, priority 2023, published 2026)
